Experimental data: patent US20170007595A1, “NSD3 INHIBITORS FOR TREATMENT OF CANCERS” (THE BRIGHAM AND WOMEN'S HOSPITAL, INC., priority 2014, published 2017)

Columns and labels:
797TRex cells [1] = test: differentiation of 797TRex cells on induced expression of construct (involucrin immunoblot, H&E, IHC); assay type: cell-based, human; conditions: induced expression for 120 h
Description: BRD4 ET domain containing fragment (BRD4 444-722) was cloned into pcDNA5 FRT/TO-FLAG (Invitrogen) with an N-terminal SV40 NLS sequence to generate pcDNA5 FRT/TO-Flag-NLS-BRD4-ET (p6894). MSCV-CMV-Flag-HA-NSD3 (p6351) has been described previously (8). To make tetracycline-inducible N- and C-terminal BioTAP-tagged constructs, the inventors transferred the gateway destination cassette from pHAGE-TRE (gift of Steven Elledge) to the pcDNA5 frt/to mammalian expression vector with N-terminal BioTAP tandem tag to make pcDNA5 frt/to-DEST-NBioTAP. NSD3-NUT was constructed by fusion PCR into pDONR223, then transferred into the pcDNA5 frt/to-DEST-NBioTAP vector by gateway cloning. Full length NSD3, NSD3Tr encoding amino acids 1-569 of NSD3, full length NUT, BRD4-NUT (derived from pcDNA5 frt/to FLAG-BRD4-NUT (17)) were PCR-cloned into pDONR223, then transferred by gateway cloning into the pHAGE-P CMVt N-HA GAW expression vector derived from the PHAGE lentiviral vector (52).
NMC cell lines, TC-797 (15) 10-15 (6), 8645(17), 293T, U205, and C33A cells were maintained as monolayer cultures in Dulbecco Modified Eagle medium (DMEM) (Invitrogen) supplemented with 10% (v/v) Fetal Bovine Serum (FBS, SH3008803, Hyclone) and 1% pen-strep (GIBCO/Invitrogen). […]

BRD4-NUT foci = biological target: T1, BRD4-NUT foci (Homo sapiens, UniProt O60885+Q86Y26); test: immunofluorescence co-localization in 797TRex cells; assay type: cell-based; conditions: HA-tagged, induced 24 h
T1 construct: composed of the N-terminal of BRD4 (amino acids 1-720 out of 1372); endogenous in cells; host or cells: 797TRex cells (tet-inducible derivative of the BRD4-NUT-positive NMC line TC-797)
Method: Immunofluorescence on TC-797 cells was performed as described (55) and nuclei were counterstained with ProLong® Gold antifade reagent with 4′,6-diamidino-2-phenylindole (DAPI) (Life Technologies). Primary antibodies used were anti-NUT (1:1000, rabbit monoclonal clone C52, Cell Signaling Technology), and anti-HA (1:500, mouse monoclonal, Sigma-Aldrich). Secondary antibodies included goat anti-rabbit Alexa Fluor 594 and goat anti-mouse Alexa Fluor 488 (1:1000, Life Technologies, Grand Island, N.Y.). Photos were taken on a Nikon Eclipse E600 fluorescent microscope (Melville, N.Y.) using a Spot RTSlider camera (Diagnostic Instruments, Inc., Sterling Heights, Mich.), and Spot Advanced software (Diagnostic Instruments, Inc.).

BRD4 = biological target: T2, BRD4 (Homo sapiens, UniProt O60885); test: anti-HA co-immunoprecipitation in C33A-6TR cells; assay type: binding; conditions: HA-tagged construct, C33A cervical carcinoma cells
T2 construct: endogenous in cells; host or cells: C33A-6TR (tet-repressor-positive C33A cervical carcinoma cells)
Method: For co-immunoprecipitation experiments of HA-tagged proteins, C33A-6TR cells stably expressing HA-tagged constructs under a Tet-inducible promoter were used. Protein extracts were prepared 24 h after transfection or induction with Doxycycline (1 μg/ml). Cells were lysed in lysis buffer (50 mM Tris-HCl [pH 7.5], 150 mM NaCl, 0.5% Nonidet P-40) with freshly added protease inhibitors (Roche Complete, EDTA free protease inhibitor cocktail, Roche, Indianapolis, Ind.). Extracts were adjusted for protein concentration and 10% of extracts were used as Input Immunoprecipitations were performed using 15 μl of HA-resin (Sigma A2095). Extracts were incubated overnight at 4° C., and precipitated proteins were detected by Western blot analysis.

797TRex cells [2] = test: luminescent cell viability assay (CellTiter-Glo), 797TRex; assay type: cell-based, human; conditions: induced ET domain expression for 120 h
Method: (§1) Cells were plated at a density of 3000 per well in a 96-well plate, and CellTiter-Glo (Promega, Madison, Wis.) was used to determine cell viability as a measure of ATP content according to the manufacturer's instructions.

U2OS cells = test: luminescent cell viability assay (CellTiter-Glo), U2OS; assay type: cell-based; conditions: induced ET domain expression for 120 h
Method: as §1

293T cells = test: luminescent cell viability assay (CellTiter-Glo), 293T; assay type: cell-based; conditions: induced ET domain expression for 120 h
Method: as §1

Molecule	differentiation (morphology, involucrin) (797TRex cells [1])	co-localization with BRD4-NUT foci (BRD4-NUT foci)	co-immunoprecipitation of BRD4 (BRD4)	proliferation rate (cell viability, CellTiter-Glo) (797TRex cells [2])	growth (cell viability, CellTiter-Glo) (U2OS cells)	growth (cell viability, CellTiter-Glo) (293T cells)
NSD3Tr: portion of NSD3 present in NSD3-NUT, amino acids 1-569 of NSD3, HA- or BioTAP-tagged, inducibly expressed (protein, left off: large carriers; small tags and cut ends, portion of NSD3 present in NSD3-NUT, amino acids 1-569 of NSD3, HA- or BioTAP-tagged, inducibly expressed) MDFSFSFMQGIMGNTIQQPPQLIDSANIRQEDAFDNNSDIAEDGGQTPYEATLQQGFQYPATTEDLPPLTNGYPSSISVYETQTKYQSYNQYPNGSANGFGAVRNFSPTDYYHSEIPNTRPHEILEKPSPPQPPPPPSVPQTVIPKKTGSPEIKLKITKTIQNGRELFESSLCGDLLNEVQASEHTKSKHESRKEKRKKSNKHDSSRSEERKSHKIPKLEPEEQNRPNERVDTVSEKPREEPVLKEEAPVQPILSSVPTTEVSTGVKFQVGDLVWSKVGTYPWWPCMVSSDPQLEVHTKINTRGAREYHVQFFSNQPERAWVHEKRVREYKGHKQYEELLAEATKQASNHSEKQKIRKPRPQRERAQWDIGIAHAEKALKMTREERIEQYTFIYIDKQPEEALSQAKKSVASKTEVKKTRRPRSVLNTQPEQTNAGEVASSLSSTEIRRHSQRRHTSAEEEEPPPVKIAWKTAAARKSLPASITMHKGSLDLQKCNMSPVVKIEQVFALQNATGDGKFIDQFVYSTKGIGNKTEISVRGQDRLIISTPNQRNEKPTQSVSSPEATSGST	found to induce differentiation	co-localized with BRD4-NUT foci	co-immunoprecipitated BRD4	–	–	–
ET domain: BRD4 ET domain containing fragment (BRD4 444-722) with N-terminal SV40 NLS, FLAG-tagged, tet-inducibly expressed (protein, left off: small tags and cut ends, BRD4 ET domain containing fragment (BRD4 444-722) with N-terminal SV40 NLS, FLAG-tagged, tet-inducibly expressed) KLQDVFEMRFAKMPDEPEEPVVAVSSPAVPPPTKVVAPPSSSDSSSDSSSDSDSSTDDSEEERAQRLAELQEQLKAVHEQLAALSQPQQNKPKKKEKDKKEKKKEKHKRKEEVEENKKSKAKEPPPKKTKKNNSSNSNVSRKEPAPMKSKPPPTYESEEEDKCKPMSYEEKRQLSLDINLPGEKLGRVVHIIQSREPSLKNSNPDEIEIDFETLKPSTLRELERYVTSCLRKKRKPQAEICVDVIAGSSKMKGFSSSESESSSESSSSDSEDSETEMAP	inducing differentiation morphologically and immunophenotypically	–	–	negatively affected the proliferation rate	unaffected	unaffected
